Laboratory results taken from the DeepSol protein solubility set.

Experiment: soluble on expression in E. coli; label from the status in PepcDB or PDB records

Row | Sequence | soluble on expression in E. coli
1 | AIACTGCVQKQYPDRGNTCLENGSYLMNFVGCANCHQRDFVLISDRTMVNEDEEEIVTYLHMCKNCEHVIARHEYTFTVVDDYQEYTMLCMLCGKAEDSISVLPDDPRQTAPLF | soluble
2 | AIAFRSVLVEAAVRVESPLLAHRLEDALLHACKQRFCSRILPSLGVCLTALRICKLVDGAGKQLALEIWPVEVSGGGLRARVHVELLLWSPLPHELAFAQVRSCSRFGIRLSILNGFDYAFVPPGSMPEPCTYHEEQRCWSWRFNEDDFVIGEGDWVRVLIERVEYATDSAMATFDSPGTVGSGPPLHILPPPVPVGRTVMETDQANATPGAHPEHAPPLETEPPEFWETPSILPLRVWARLDAPGLGPIDWWS | soluble
3 | AIASSAPAPGPAPASLTLWDEEDFQGRRCRLLSDCANVCERGGLPRVRSVKVENGVWVAFEYPDFQGQQFILEKGDYPRWSAWSGSSSHNSNQLLSFRPVLCANHNDSRVTLFEGDNFQGCKFDLVDDYPSLPSMGWASKDVGSLKVSSGAWVAYQYPGYRGYQYVLERDRHSGEFCTYGELGTQAHTGQLQSIRRVQH | soluble
4 | ALEEVVRYLGPHNEIPLTLTRDSETGHFLLKHFLPILQQYHDTGNINETNPDSFPTDEERNKLLAHYGIAVNTDDRGELWIELEKCLQLLNMLNLFGLFQDAFEFEEPETDQDEEDPSHSKLPEN | soluble
5 | ALKPTIYKFRIALSDMNNDYYDSKNLTIALHPSEKPQRMLARILAFCLNAQKDLEFTKGLSTTEEPDLWHVADDQSITHWIEIGEPEPDRIKKASRLAKQVKVYTYNTKAPVWWEKMSGKFSMLPVSVESFDYDAIDMICQHLDRGTNLSVMITGTSIFVDVNDQHVEVTVKELQS | soluble
6 | ALVELKVPDIGGHENVDIIAVEVNVGDTIAVDDTLITLETDKATMDVPAEVAGVVKEVKVKVGDKISEGGLIVVVEAEGTA | soluble
7 | AMKPAQKGKTFSNVEIFDPPTNYRDPQVLYARPLELSDGTLLGTWENYSPEPPNVWFPIVKSKDGGKTWKEISKVKDTQNNWGLRYQPQLYELPRAFGKYPKGTVLCSGSSIPSDLSETLIEVYASRDKGYTWEFVSHVALGGEALPNPGLTPVWEPFLMTYKEKLILYYSDQRDNATHSQKLVHQTTTDLKKWSKVVDDTKYADYYARPGMPTVAKLPNNEYIYVYEYGGGPNPPAGSDYWFPVYYRLSKDPQKFLNKAHHQIVSNDGTTPAGSPYVVWTPYGGKNGTIVVSCGTRSEIFTNQALGDASAWKKWDVPQPTAYTRSLLTFQKDPDLLMIMGAGILPPAGGKNTVSASVVRLSEVMKS | soluble
8 | AMLPHGLIVSCQALPDEPLHSSFIMSKMALAAYEGGAVGIRANTKEDILAIKETVDLPVIGIVKRDYDHSDVFITATSKEVDELIESQCEVIALDATLQQRPKETLDELVSYIRTHAPNVEIMADIATVEEAKNAARLGFDYIGTTLHGYTSYTQGQLLYQNDFQFLKDVLQSVDAKVIAEGNVITPDMYKRVMDLGVHCSVVGGAITRPKEITKRFVQVMED | soluble
9 | APAEPAAPKSGEAETPPKHPGVLKVEAILEKVQGLEQAVDSFEGKKTDKKYLMIEEYLTKELLALDSVDPEGRADVRQARRDGVRKVQTILEKLEQKA | soluble
10 | APLATRQGKRPSKNLKARCSRKALHVNFKDMGWDDWIIAPLEYEAFHCEGLCEFPLRSHLEPTNHAVIQTLMNSMDPESTPPTCCVPTRLSPISILFIDSANNVVYKQYEDMVVESCGCR | soluble
11 | APQIQYKQLQLARLKILRELSNKRNSTVITMIHRQESIGLFGIPVYKFITIEDSEEILRAIRAAPKDKPIDLIIHTPGGLVLAATQIAKALKAHPAETRVIVPHYAMSGGTLIALAADKIIMDENAVLGPVDPQLGQYPAPSIVKAVEQKGADKADDQTLILADIAKKAINQVQNFVYNLLKDKYGEEKAKELSKILTEGRWTHDYPITVEEAKELGL | not soluble
12 | AQPDIKFASKEYGVTIGESRIIYPLDAAGVMVSVKNTQDYPVLIQSRIYDENKEKESEDPFVVTPPLFRLDAKQQNSLRIAQAGGVFPRDKESLKWLCVKGIPPKDEDIWVDDATNKQKFNPDKDVGVFVQFAINNCIKLLVRPNELKGTPIQFAENLSWKVDGGKLIAENPSPFYMNIGELTFGGKSIPSHYIPPKSTWAFDLPKGLAGARNVSWRIINDQGGLDRLYSKNVTL | soluble
13 | AQYEDGKQYTTLEKPVAGAPQVLEFFSFFCGHAYQFEEVLHISDNVKKKLPEGVKMTKYHVNFMGGDLGKDLTQAWAVAMALGVEDKVTVPLFEGVQKTQTIRSASDIRDVFINAGIKGEEYDAAWNSFVVKSLVAQQEKAAADVQLRGVPAMFVNGKYQLNPQGMDTSNMDVFVQQYADTVKYLSEKK | soluble
14 | ARIGLYEKALPQNLTWAERLTWAKKLGFDFLEMSIDESDERLARLAWTPSQLQEFSQLMVKEDFFIHSLCLSGHRRFPLGSLNKETREKGRKILSQAIRLAHQLNIRVIQIAGYDVFYEEKTAETREFFLQGLKKGVEEAAQYGVILAVEIMDDPFMNSIQKFLEIKEQIPSPFLHVYPDLGNLSAWPENNPAVELEKGIAEIAAIHLKDTFAVTDTFEGKFREVTFGEGCVDFTGLLKTLKRLNYSGPFLIEMWNETDLNFQEKIQAAQQYLYPKLAEVGYY | not soluble
15 | ARPCIPKSFGYSSVVCVCNATYCDSFDPPTFPALGTFSRYESTRSGRRMELSMGPIQANHTGTGLLLTLQPEQKFQKVKGFGGAMTDAAALNILALSPPAQNLLLKSYFSEEGIGYNIIRVPMASCDFSIRTYTYADTPDDFQLHNFSLPEEDTKLKIPLIHRALQLAQRPVSLLASPWTSPTWLKTNGAVNGKGSLKGQPGDIYHQTWARYFVKFLDAYAEHKLQFWAVTAENEPSAGLLSGYPFQCLGFTPEHQRDFIARDLGPTLANSTHHNVRLLMLDDQRLLLPHWAKVVLTDPEAAKYVHGIAVHWYLDFLAPAKATLGETHRLFPNTMLFASEACVGSKFWEQSVRLGSWDRGMQYSHSIITNLLYHVVGWTDWNLALNPEGGPNWVRNFVDSPIIVDITKDTFYKQPMFYHLGHFSKFIPEGSQRVGLVASQKNDLDAVALMHPDGSAVVVVLNRSSKDVPLTIKDPAVGFLETISPGYSIHTYLWHRQ | soluble
16 | ARSTNTFNYATYHTLDEIYDFMDLLVAQHPELVSKLQIGRSYEGRPIYVLKFSTGGSNRPAIWIDLGIHSREWITQATGVWFAKKFTENYGQNPSFTAILDSMDIFLEIVTNPNGFAFTHSENRLWRKTRSVTSSSLCVGVDANRNWDAGFGKAGASSSPCSETYHGKYANSEVEVKSIVDFVKNHGNFKAFLSIHSYSQLLLYPYGYTTQSIPDKTELNQVAKSAVAALKSLYGTSYKYGSIITTIYQASGGSIDWSYNQGIKYSFTFELRDTGRYGFLLPASQIIPTAQETWLGVLTIMEHTVNN | soluble
17 | ASSGIVKMVSPTSKIEPCIVSVTYGSMTLNGLWLDDKVYCPRHVICSSSNMNEPDYSALLCRVTLGDFTIMSGRMSLTVVSYQMQGCQLVLTVSLQNPYTPKYTFGNVKPGETFTVLAAYNGRPQGAFHVTMRSSYTIKGSFLCGSCGSVGYVLTGDSVKFVYMHQLELSTGCHTGTDFTGNFYGPYRDAQVVQLPVKDYVQTVNVIAWLYAAILNNCAWFVQNDVCSTEDFNVWAMANGFSQVKADLVLDALASMTGVSIETLLAAIKRLYMGFQGRQILGSCTFEDELAPSDVYQQLAGV | soluble
18 | ASWSHPQFEKGAMSNYSMSRGHSDKCVGAEDILSEIKEAEKVLNAASDELKREGHNVKTFIDRTSTTQSANLNKIVNWHNANPADVHISVHLNAGKGTGVEVWYYAGDEKGRKLAVEISAKMAKALGLPNRGAKATKDLRFLNSTKGTAVLLEVCFVDRKEDANAIHKSGMYDKLGIAIAEGLTGKTVAAKNPNRHSGAVVDSVPMLSKMDFKSSPIKMYKAGSSLLVYEHNKYWYKAYINDKLCYIYKSFCISNGKKDAKGRIKVRIKSAKDLRIPVWNNTKLNSGKIKWYSPGTKLSWYDNKKGYLELWYEKDGWYYTANYFLK | soluble
19 | ATDVAARGLDISGVTHVYNYDIPQDPESYVHRIGRTGRAGKEGMAITFVQPREMGYLRIVEETTKKRMQPLQAPTWDEAFAGQLRVATEKIQEAITEENLADYKTFANELLEKYDATDIAAAMLKMLAKEPDKTPVHITEERPLPSRGGGGYKGK | not soluble
20 | DAAPAPAAEAAPAAAPAPAAAAELKEVHVPDIGGDEVEVTEIMVAIGDSIEEEQSLITVEGDKASMEVPAPFAGTLKEIKVAAGDKVSTGSLIMVFETAGSGAPAAPAAVEAPAAAAPAASAA | not soluble
21 | DDEITREPRKVVLHRGSTGLGFNIVGGEDGEGIFISFILAGGPADLSGELRKGDRIISVNSVDLRAASHEQAAAALKNAGQAVTIVAQYRPEEYSRQHA | soluble
22 | DDGEPYALCVVATDITDQKQRERELARLTDEYAAVFENTNDAIALVDIEEPADDPTFRYVRTNEAYERQTGFDTESLTGQTPVEAAGPDIGRRIADHYKQCVSAGEPITFEERDLHPTGVWETQVTPIAADG | not soluble
23 | DEAMVKIEKQEIVEHLSENSLLVQLKYAGASTDEPLLNELYKHYQVMANILYGNIEILDGTPVGELVVVLSGEKAALAGAQEAIRQAGVQLKVLKGVQ | not soluble
24 | DFELLHKLGGGNYGDVHLASVKDCNFVCALKRLSIKKLADFDIATQLRREIEIAFNTRHKYLLRTYAYFFDETDIYLIMEPCSNGMLYTELNRVKCFAPPTAARYVAQLAEALLYLHQHHILHRDIKPENILLDHNNNIKLADFGWSVHDPDNRRKTSCGTPEYFPPEIVGRQAYDTSADLWCLGIFCYELLVGKTPFVGKDTDQICKNIHSMHFKIPENIPSEAKDLIANLLLRDGSRRLALHRVVNHQFLLKYYYLPNNL | soluble
25 | DFVGGTKMNMPAAQLETSEVADTFKDATGIEPELVQIVGSGDTRILEINSERLSEDQISQARVALFEKYQPVGSQGQPTPDAIGDSTVSESWGSTITQR | not soluble
26 | DGPGDGFTILSSKSLVLGQKLSLTQSDISHIGSMRVEGIVHPTTAEIDLKEDIGKALEKAGGKEFLETVKELRKSQGPLEVAEAAVSQSSGLAAKFVIHCHIPQWGSDKCEEQLEETIKNCLSAAEDKKLKSVAFPPFPSGRNCFPKQTAAQVTLKAISAHFDDSSASSLKNVYFLLFDSESIGIYVQEMAKL | soluble
27 | DIELTQSPASLSVATGEKVTIRCMTSTDIDDDMNWYQQKPGEPPKFLISEGNTLRPGVPSRFSSSGTGTDFVFTIENTLSEDVGDYYCLQSFNVPLTFGCGTKLEIK | soluble
28 | DIKMTQSPSSMSASLGESVTITCKASRDIKSYLSWYQQKPWKSPKTLIYYATSLADGVPSRFSGSGSGQDYSLTISSLESDDTATYYCLQHGESPFTFGSGTKLELKRADAAPTVSIFPPSSEQLTSGGASVVCFLNNFYPKDINVKWKIDGSERQNGVLNSWTDQDSKDSTYSMSSTLTLTKDEYERHNSYTCEATHKTSTSPIVKSFN | soluble
29 | DIQMTQSPSSLSASVGDRVTITCRASGNIHNYLAWYQQKPGKAPKLLIYYTTTLADGVPSRFSGSGSGTDYTFTISSLQPEDIATYYCQHFWSTPRTFGQGTKVEIKR | soluble
30 | DIQMTQSPSSLSATLGGKVTITCKASQDINKYIAWYQHKPGKGPRLLIHYTSTLQPGNPSRFSGSGSGRDYSFSISNLEAEDIAIYYCLQYDNLQRTFGGGTKVEIKRADAAPTVSIFPPSSEQLTSGGASVVCFLNNFYPKDINVKWKIDGSERQNGVLNSWTDQDSKDSTYSMSSTLTLTKDEYERHNSYTCEATHKTSTSPIVKSFNRNE | soluble
